The source of these data is paper PMC8092703, “Structural Basis for the Shared Neutralization Mechanism of Three Classes of Human Papillomavirus Type 58 Antibodies with Disparate Modes of Binding” (Journal of Virology, 2021).

The target of experiment [1] is HPV58 virus-like particles (VLPs) self-assembled from recombinant HPV58 L1 (human papillomavirus type 58, UniProt P26535 1-524, The printed source is GenBank AFS33402.1, which may differ from P26535 at isolate-variant positions. The start is taken by convention at MSVWRPSE (Met27 of P26535), and paper numbering + 26 = P26535 n). Kind of experiment: ELISA; inhibition ELISA; HPV58 VLPs coated; diluted monoclonal antibody 1 h at 37°C, then rabbit standard antiserum against HPV58 VLPs 30 min at 37°C; HRP goat anti-rabbit IgG; inhibition rate. The conditions noted are these: both partners purified. In general terms: In an ELISA, binding on a coated surface is turned into a signal by an enzyme label.

Experiment [2] concerns the target T1, HPV58 pseudovirus (PsV58) capsid (human papillomavirus type 58, UniProt P26535 1-524; P26538 1-472).
T1 sequence 1: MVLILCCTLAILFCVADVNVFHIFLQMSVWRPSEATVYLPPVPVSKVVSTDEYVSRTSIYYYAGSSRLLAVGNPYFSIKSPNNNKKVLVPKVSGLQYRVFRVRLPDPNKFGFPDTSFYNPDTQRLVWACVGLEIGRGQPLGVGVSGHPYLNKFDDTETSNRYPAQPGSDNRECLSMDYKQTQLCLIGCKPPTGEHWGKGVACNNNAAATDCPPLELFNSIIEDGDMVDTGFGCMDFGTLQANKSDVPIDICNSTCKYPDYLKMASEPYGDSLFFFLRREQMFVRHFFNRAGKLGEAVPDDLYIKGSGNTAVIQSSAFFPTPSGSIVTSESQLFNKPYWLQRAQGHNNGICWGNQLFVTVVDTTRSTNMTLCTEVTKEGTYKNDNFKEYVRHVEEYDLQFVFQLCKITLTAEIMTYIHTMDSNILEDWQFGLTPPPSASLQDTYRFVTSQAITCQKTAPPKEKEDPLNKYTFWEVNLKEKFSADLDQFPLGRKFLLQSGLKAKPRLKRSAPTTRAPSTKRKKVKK
T1 sequence 2: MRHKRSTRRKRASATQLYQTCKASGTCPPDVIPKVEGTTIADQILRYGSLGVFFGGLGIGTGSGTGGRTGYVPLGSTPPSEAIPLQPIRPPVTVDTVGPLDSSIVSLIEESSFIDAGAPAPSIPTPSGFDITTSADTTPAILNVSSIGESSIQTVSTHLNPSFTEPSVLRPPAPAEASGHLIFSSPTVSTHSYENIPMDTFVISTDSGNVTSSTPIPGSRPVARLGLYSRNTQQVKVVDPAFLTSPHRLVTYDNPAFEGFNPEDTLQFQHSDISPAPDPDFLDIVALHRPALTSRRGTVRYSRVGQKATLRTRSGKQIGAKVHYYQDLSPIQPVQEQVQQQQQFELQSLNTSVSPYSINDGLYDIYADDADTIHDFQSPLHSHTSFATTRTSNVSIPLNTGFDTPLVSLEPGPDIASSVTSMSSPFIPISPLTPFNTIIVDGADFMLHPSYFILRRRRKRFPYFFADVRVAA
The experiment can be described thus: cell-based or functional assay.

For experiment [3], the target named is T2, HPV58 pseudovirus (PsV58) capsid (human papillomavirus type 58, UniProt P26535 1-524; P26538 1-472, T=7d capsid of 72 L1 pentamers. L2 copy number is unknown and no L2 density was seen. Expressed from p58sheLL, whose L1 and L2 may carry isolate-variant residues.). The experiment can be described thus: cryo-EM structure; purified PsV58 mixed with Fab in 1.5-fold excess (pseudovirus-Fab molar ratio 1:540), 37°C for 2 h; icosahedral and 2-fold subparticle reconstruction. The conditions noted are these: both partners purified.

Experiment [4] deals with T2, HPV58 pseudovirus (PsV58) capsid. Kind of experiment: cell-based or functional assay.

B1: nAb 2H3 (anti-HPV58 neutralizing monoclonal antibody, full length) (antibody, V domains shown)
VH: QVQLLQSGAELVRPGSSVKISCKASGYVFTSYWMHWVKQRPGQGLEWIGQIYPGDGGTHYNGNFRDKATLTADKSSSTAYMHLSSLTSEDSAVYFCARKIYDGYGFSYWGQGTLVTVS
VL: DIQMTQSPASLSVSVGETVTITCRASENIYSNLIWYQQKQGKSPQLLVYAATNLADGVPSRFSGSGSGTQYSLKINSLQSEDFGSYYCQHFWGTPLTFGAGTKLEIKR
notes: variable domain of the heavy chain of nAb 2H3; variable domain of the light chain of nAb 2H3; Mouse IgG1; source: mouse hybridoma, ascites of BALB/c mice, purified (protein A-agarose)
Turning to B1, in experiment [1], the “inhibition rate of the nAb against rabbit antiserum to HPV58 VLPs” value (from here on “inhibition rate of the nAb”) is 87%. For the same molecule, in experiment [2], the “neutralization titer, pseudovirus-based neutralization assay in 293FT cells (first well 1 μg/ml nAb, 2-fold dilutions)” value turned out to be 51200.

B2: Fab fragment of nAb 2H3 (Fab, V domains shown)
VH: B1 VH
VL: B1 VL
notes: variable domain of the heavy chain of nAb 2H3; variable domain of the light chain of nAb 2H3; Fab of a mouse IgG1; the Fab model in the structure is a homology model; also called Fab 2H3; 2H3 Fab; source: papain digest of the purified nAb, separated from Fc on a TSKgel DEAE-5PW column
In the case of B2, the “stoichiometry N” value in experiment [3] was determined as 4 Fabs per asymmetric unit.

B3: nAb A4B4 (anti-HPV58 neutralizing monoclonal antibody, full length) (antibody, V domains shown)
VH: QVTLKESGPGILQPSQTLSLTCSFSGFSLSTSGMGVGWIRQPSGKGLEWLAHIWWNDDKNYHPALKSRLTISKDTSSNRVFLNIASVDTADTATYYCARIHYVTDALDYWGQGTSVTVS
VL: DIVMSQSPSSLAVSVGEKVTMSCKSSQSLLYSSIQKNYLAWYQQKPGQSPKLLIYWASIRESGVPDRFTGSGSGTDFTLTISSVKAEDLAVYYCQRYYGYPWTFGGGTKLEIKR
notes: variable domain of the heavy chain of nAb A4B4; variable domain of the light chain of nAb A4B4; Mouse IgG2a; source: mouse hybridoma, ascites of BALB/c mice, purified (protein A-agarose)
As to B3, the “inhibition rate of the nAb” value in experiment [1] was 71%. Further, the “neutralization titer, pseudovirus-based neutralization assay in 293FT cells (first well 1 μg/ml nAb, 2-fold dilutions)” value in experiment [2] was 12800.

B4: Fab fragment of nAb A4B4 (Fab, V domains shown)
VH: B3 VH
VL: B3 VL
notes: variable domain of the heavy chain of nAb A4B4; variable domain of the light chain of nAb A4B4; Fab of a mouse IgG2a; the Fab model in the structure is a homology model; also called Fab A4B4; A4B4 Fab; source: papain digest of the purified nAb, separated from Fc on a TSKgel DEAE-5PW column
For the molecule B4, the “stoichiometry N” value in experiment [3] worked out at 4 Fabs per asymmetric unit. The “IC50 of neutralization of PsV58 by the Fab form” value in experiment [4] worked out at 1.28 µg/mL.

B5: nAb 5G9 (anti-HPV58 neutralizing monoclonal antibody, full length) (antibody, V domains shown)
VH: EVMLVESGGGLVKPGGSLKLSCVASGFTFSDYAMSWGRQTPEKRLEWVATISSGGVSTYHPDSVKGRFTMSRDNAKNTLYLQMSSLRSEDTAKYYCARGGGRYAMDYWGQGTSVTVS
VL: DVQITQSPSYLAASPGETITINCRASKSINKYLAWYQEKPGTTNKLLIYSGSTLQSGIPSRFSGRGSGTDFTLTISSLEPEDLAVYYCQQYNEYPWTFGGGTKLEIKR
notes: variable domain of the heavy chain of nAb 5G9; variable domain of the light chain of nAb 5G9; Mouse IgG2a; source: mouse hybridoma, ascites of BALB/c mice, purified (protein A-agarose)
As for B5, in experiment [1], the “inhibition rate of the nAb” value is 59%. Besides, the “neutralization titer, pseudovirus-based neutralization assay in 293FT cells (first well 1 μg/ml nAb, 2-fold dilutions)” value in experiment [2] stood at 410000.

B6: Fab fragment of nAb 5G9 (Fab, V domains shown)
VH: B5 VH
VL: B5 VL
notes: variable domain of the heavy chain of nAb 5G9; variable domain of the light chain of nAb 5G9; Fab of a mouse IgG2a; the Fab model in the structure is a homology model; also called Fab 5G9; 5G9 Fab; source: papain digest of the purified nAb, separated from Fc on a TSKgel DEAE-5PW column
With B6, the “stoichiometry N” value in experiment [3] was 1 Fab per capsomer.

Broadly, the stoichiometry N is the number of molecules, sites or subunits per partner or assembly.
